This is an account of results in paper PMC3863792.

For the data set, the target named is T1, bio-d-mC5a (mirror-image mouse C5a) (mouse, UniProt P06684).
T1 sequence: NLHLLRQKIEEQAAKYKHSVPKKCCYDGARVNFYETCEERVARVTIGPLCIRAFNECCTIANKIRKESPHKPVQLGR
Description: competition.

Residue numbers refer to the chain shown, from its start.

B1: 274-C8-002 (structured_RNA)
RNA: GCCUGAUGUGGUGUUGAAGGGUUGUUGGGUGUCGACGCACAGGC
B1: the binding result was “binds”.

B2: 274-C8-002-G14 (structured_RNA)
RNA: B1 RNA with U14G
For B2, the binding result is “binds”.
